Reference: the DeepSol protein solubility set

Assay: soluble on expression in E. coli; label from the status in PepcDB or PDB records

Row | Sequence | soluble on expression in E. coli
1 | REEELNTEKVVAAIANPVENEVRKVWEDVVEKIEQRVAVIEQASHKLLQNKVSEEILSKAKVEAHKLAGSLGMFGSDEGSQIAQEIESLLDNGKKLKASGGKHLGQVVEALHQELENLKSG | soluble
2 | MTDKTIAFSLLDLAPIPEGSSAREAFSHSLDLARLAEKRGYHRYWLAEHHNMTGIASAATSVLIGYLAANTTTLHLGSGGVMLPNHLPLVIAEQFGTLNTLYPGRIDLGLGRAPGSDQRTMMALRRHMSGDIDNFPRDVAELVDWFDARDPNPHVRPVPGYGEKIPVWLLGSSLYSAQLAAQLGLPFAFASHFAPDMLFQALHLYRSNFKPSARLEKPYAMVCINIIAADSNRDAEFLFTSMQQAFVKLRRGETGQLPPPIQNMDQFWSPSEQYDVQQALSMSLVGDKAKVRHGLQSILRETDADEIMVNGQIFDHQARLHSFELAMDVKEELLG | not soluble
3 | MEDKTLGLLLDVVGELFSDEISIAVSNTKEYIYYRPSKRIDLKISAGDPIKEGTIAHKAMVTNQKTSEFMNRDVFGIPYHGMAVPFSNNGKLEGCVTAIYPALTDGKSVVTLKTTDGWIPVPFSKVMYLEAKDKKTYVNAEELTGTHKYSLQEFEYLLPKDSFIRCHRSFIVNVNHIKAIYPDTHSTFLLSMDNGERVPVSQSYASYFRKLLGF | soluble
4 | MSGIKPSVSKGESQAPQTRQLEASKPTVQGIIDILHDTISYVQVEKQSKTINFSIPHLQMIKEQLESIQLKDKNYKDLEKKFNEKQDEHLETIQKLDSTLSRQKLKYDDMRQALSVKIYTLENECSNLQDNYADLQNDFEVQIEKFKKLQNLKSIQNHENSKNVNPLTLDELTEQLKQFKEELSIDQKLKNIQLTCEGLQSAVGNFEMNSKKAKEIEILKMDIKKTQELYESRLLRAAQENKKLLRKNDTLKNYLDNQTAKIGELTAGNKTENRSPTPTLQGLIEILQKFSDDQKLEPECKMLQLHKEECRLILESLEVHDKKDQEIQWFQRQINDQKKRIANLGWSYENALEDKDALELKLEHQYEQMMELKKNFIPKNEISEDLAKTVRNFGKRLRNSRGNLKNAFKELEALKEVQEEEGSSDESSESSASDDLPDGDSSSEE | not soluble
5 | MASGIRCFRLLHPAFRSYHAALTRPVSEVSMKTVSGRQHGHRQYSAYPAVPVRHFATKKAKAKGKGQPQARVTVNRALVEDIISLEEVDEDMKSVVEALKDNFNKTLNIRTAPGSLDHITVVTADGKVALNQIGQISMKSPQVILVNMASFPECTAAAIKAIRESGMNLNPEVEGTLIRVPIPKVTREHREMLVKLAKQNTNKAKENLRKVRTNAMNKLKKSKDKTSEDTIRLIEKQISQMADDTVAELDQHLAAKTKELLG | soluble
6 | GPGSMGIIKHVAVILDVSEASLEQHVLERVRQLDEDTVVRRLSEEKAGKLPDFIKLSEDIIEKNDLRKSGEGSVESIQRFVCFVTDNKTRQNGMVAYAMHCLQIPVLSLTKGQKAKGNDDAEHWVSTILYKDLDGSHTDPLAAVNEFFTFPDKVGELLAVEGRDSQLTLQYCRELRSYLQRAWSAEVKLVGPNGCDMSEEGLDGTKCGETDNVEEQVEVESGIHAPLVKELLGNSQLESTHQNDHLLHGAMYALNRHENLPIIRYRLQRGVNIILCRPMSSSLEKLFNKFSRMRGGAEDVRRSFIDAVKSLLQFEGRWLDMPRRRVVLIREGVAHSWSAWLGNEVIHPLVDWIPVDVKAGNIADHCASLEASVKKAVRRLSR | soluble
7 | MGSDKIHHHHHHCDSGSDAVSYGVGTLSLGLSANPSFSTKTRSVNEAEYKKADNYQVTVKDADGASLYNGLYKDMPLSIDLTAGKGYTVKAFYGENVNAGFDKLYVEGSQEFTVSEGEQKNVILYCKPANVKVSVVYTEDFLKYYSDCTVSLSTSHLTAPFEVNMKKDSGKDAYLKANADGEKVSITVGGFRDKEGNEVVMEALVAEKKVAPKTHLTITVDPEVITISTGTASLDVTVDTGTEDKDVNIEIPEEYWPGNASK | not soluble
8 | MGSDKIHHHHHHMKDILKELKKKLSEEDFNKFNGRVTRVVGLTVESKGPDAFLGEMCKISLQNGKNALAEVVGFREESVILMPYEDVSGLKMGCEVIRTNKVLEVGVSRKMIGRVFDGLGRPIDGKPFVPEDRYPLINNPPNPLKRRRIKDPLPVGIRSIDGFITIGKGQRIGIFAGSGVGKSTLLGMIARNTTADINVLALIGERGREVREFIERDLGEEGLKRSILVVSTSDQPALARVKSLLTATSIAEFFRDLGYDVLLMVDSLTRWAMAQREVGLAVGEPPTTRGYPPSVFAGLPKILERAGNSDKGSITAIYTVLVEADDFNEPISDTVRSIVDGHIILSRRLAESNHYPAVDVLASVSRLMNDIVTEEHREAANRLRSLMSAYESAKDLIEIGAYKSGTNPLVDKAVEMKDEIDSFLKQGVFEKASFEETLQKLLDLYLRSLD | not soluble
9 | MGSDKIHHHHHHMSGFLTFDFENQAVRAFEHDGQEWFVAVDVCRCLRLENSRQALTRLSDDEKRSCNLNTLTDSKGIIFNAINDSDGIRAGNPNATIVNEPGLYRLIFTSTKPEAERLKRFVFHEVLPALRHTGCFAPEPVIDWEIAREQLSLVREARLAHGKEAAAALWRELGLPMPKDETSDKERRQAQGLMKYVYDFIDECMVFDQKAEVTGKEVYQRYQQWSATNNAPYIMNSSFGRFLIRAGIVKRHVSTGSRYIGVRLKHHIQITDQSS | not soluble
10 | MKKYILTLILALASLGLYAQTNRNKTIINAALHGWEYEIKAGVNLGGTAPLPFPEEIRSIDGYNPTLSITIEGNMTKWLDTKKKWGIITGLRLENKGMRTKATVKNYNMEIIGYDGNRLKGNWTGGVRTKVQNSYITIPVLAAYKLSPRTTLKLGPYFSYLMDGDFSGHVYEGYLRETNPTGDKINFTNGAIATYDFSGDLRKFQWGVQAGVDWKAFKHLKVHADLNWGLNDIFNKDFKTVTFDMYAIYLNVGFGYAF | not soluble
11 | MNFADIFSKIRRQQPSVKEAPNHWVKCQSCHALMYYKEIESCFNVCPKCNYHMRISADERIKLLSDEGSFIEYDANLEAIDPLKFVDSKSYKKRLSEGESKTGRKSSVISGECEINGLKTQLVVFDFSFMGGSLGSVEGEKIVRAIQRAITSKTSLVIVSASGGARMQESTYSLMQMSKTSAALKLLSKEKLPYISILTDPTMGGVSASFAWLGDLIIAEPEALVGFAGARVIKQTIGADLPEGFQKAEFLLEHGLIDAIVERGEQKQYLSDVLKFFSGKLEHHHHHH | not soluble
12 | MRIIETIEEMKKFSEEMREKKKTIGFVPTMGYLHEGHLSLVRRARAENDVVVVSIFVNPTQFGPNEDYERYPRDFERDRKLLEKENVDCIFHPSVEEMYPPDFSTYVEETKLSKHLCGRSRPGHFRGVCTVVTKLFNIVKPHRAYFGQKDAQQFRVLRRMVRDLNMDVEMIECPIVREPDGLAMSSRNVYLSPEERQQALSLYQSLKIAENLYLNGERDAEKIKEEMIKHLSRFDKVKIDYVEIVDEETLEPVEKIDRKVIVAVAAWVGNARLIDNTILG | soluble
13 | MGSDKIHHHHHHVSEALLEQAVSDVMPTKLAIIMRGLPGSGKSYWVEQFITSQGIEQAIHIRQHGLFSTDRYFYQQGQYRFNPQKIGQYHQANLTAFIQALARKEPIVICDNTNIAKWEFMAYEAAAKALGYQVKVVLVGQPDNDQHQQLCAQRNQHQVSLAHIQKMAQLFEE | not soluble
14 | MGSDKIHHHHHHMKFVIRDLNTKKVMKNAYRITKTKYETSLRVRVPGGLIDPESLAVVSKIASEYGNGQVHITTRQGFEILGINMEDMEEINKIIQPVIEKMNINQSEKNAGYPAAGTRNIAACIGNKVCPKAQYNTTEFAKRIEKAIFPNDLHFKVALTGCPNDCIKARMNDFGIIGMALPIYEKDRCVNCGACVKKCSKISVGALKTENNKVVRDKDKCIGCGECVLNCPTNAWTRDEKKYYRLAIMGRTGKKNPRLAEDFLLWVDEDSIIKIILNTYRYVEKYIDKDAPGGKEHIGYIIDRTGFMEFKKWALEGVELPEITKMYENIYWSGIKYL | not soluble
15 | DEAWLTEMLKRVNVLPEALVLTQAANESAWGTSRFATQANNLFGQWCYKQGCGIVPAQRAAGKTHEVQKFDSVQQSIHGYFMNVNRNPAYADLRDIRAMLADKHKNLFSVATASELTHGLLSYSERGIAYVNDLRSMIRHNNAYWTQ | not soluble
16 | SIVKMLLFQETARHSRAEGEPGASHSGSKQDKVPSSEEGTGCDASVCEAAAATHCEKDVTVSDTENVSSSKNILSHDPDVGTDTMEKEEKTHHACQEMELKVDQSSESTNPTEAELSSETRQGLQLTSGDVGIDQFLRQGDEPKSVNSDASDPGSVRLEPLTPSEVLEYEATEILHDGDDPSANTSDTVSDQTGGSPGGSNPCRAETAVDLADGEERS | soluble
